Among the data in patent US20040131613A1 (published 2004) are kon values, retold here.

In the assay the target is T1, human TNF-α (human, UniProt P01375 77-233).
T1 construct: It was biotinylated in the plaque lift and on-rate ELISA, and coated on plates or beads in the other assays; also called hTNF-α; hTNF
In words: kinetic exclusion assay (KinExA 3000), 40 pM Fab with 400 pM hTNF-α, time course. How it is done: Next, binding kinetics of three of the Fab fragments described in Table 4 were determined in a kinetic exclusion assay. Affinity measurements were performed on a KinExA™3000 instrument (Sapidyne Instruments, Inc., Boise, Id.) using Fab fragments (A10K, A9K, and A10P) released from the periplasmic space whose concentration was determined by a quantitative ELISA. Briefly, antigen and antibody fragment were allowed to react in solution and the fraction of unbound reagent was determined by capture and measured on a bead support. Binding kinetics can be determined or calculated from the amount of unbound reagent. For instance, after interaction between TNF-α and a Fab fragment has occurred in solution, binding of the unreacted, free Fab fragment to TNF-α coated beads can be measured on the instrument by detection with a labeled secondary antibody to the Fab fragment (e.g., a goat anti-IgG (heavy and light)). […] After the incubation, the amount of unbound Fab in the equilibrated samples was determined on the KinExA™3000 instrument according to the manufacturer's instructions. Kd values were determined by the instrument software.
To measure kₒₙ, individual Fab fragments at a concentration of 40 pM were mixed with 400 pM of hTNF-α. […] The resulting data was used to calculate the kₒₙ with the instrument software. koff was calculated by using the formula Kd=koff/kₒₙ.
A general note: A kinetic exclusion assay measures how much of one partner remains free in solution.

T1 sequence (P01375 77-233 limits assumed): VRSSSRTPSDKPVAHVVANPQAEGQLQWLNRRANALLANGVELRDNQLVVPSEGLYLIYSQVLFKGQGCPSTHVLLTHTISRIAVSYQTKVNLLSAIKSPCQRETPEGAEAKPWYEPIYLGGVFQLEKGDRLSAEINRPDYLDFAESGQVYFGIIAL

B1: A10K Fab fragment (Fab, V domains shown)
VH: EVQLVESGGGLVQPGGSLRLSCAASGFKFSNHWMNWVRQAPGKGLEWVGEIRSKSMNSATHYAESVKGRFTISRDDSKNSLYLQMNSLKTEDTAVYYCARNYYGSTYDHWGQGTLVTVSS
VL: EIVLTQSPDFQSVTPKEKVTITCRASQFVGYSIHWYQQKPDQSPKLLIKYASESRSGVPSRFSGSGSGTDFTLTINSLEAEDAATYYCQQSHSWHFTFGQGTKVEIK
notes: Fab released from the E. coli periplasm; The light chain is kappa, since it was detected with anti-human kappa; Mutations against hu1: light S31Y, M55R
By kon is commonly meant the second-order rate constant of association. Take B1: the kon lay in the range of 3.92e+06 to 7.51e+06 M⁻¹ s⁻¹.
